Assay results reported in patent US20150239975A1 (KOREA RESEARCH INSTITUTE OF BIOSCIENCE AND BIOTECHNOLOGY, published 2015).

T1: transmembrane 4 L six family member 5 (TM4SF5) protein (human, UniProt O14894 1-197)
T1 sequence (looked up): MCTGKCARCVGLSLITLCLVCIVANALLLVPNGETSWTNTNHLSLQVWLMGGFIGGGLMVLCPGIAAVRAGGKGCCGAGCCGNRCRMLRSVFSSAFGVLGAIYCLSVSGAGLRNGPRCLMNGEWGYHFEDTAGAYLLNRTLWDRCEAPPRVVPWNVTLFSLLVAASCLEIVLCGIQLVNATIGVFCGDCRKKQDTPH

B1: monoclonal antibody #1 (scFv-Fc form) (Fc fusion, not shown: a dimerising Fc or GST)
scFv: EVQLQQFGAELVRPGASVTLSCKASGYTFTDYEMHWVKQTPVHGLEWIGAIDPETGGTAYNQKFKGKAILTADKSSSTAYMELRSLTSEDSAVYFCARLTLFYGNYDWPFDVWGTGTSVTVSSADIVMTQSQKFMSTSVGDRVSITCKASQNVRTAVAWYQQKPGQSPKLLIYWASTRHTGVPDRFTGSGSGTDFTLTISNVQSEDLADYFCQQYSSYPFTFGSGTKLEIK
B2: monoclonal antibody #79 (scFv-Fc form) (Fc fusion, not shown: a dimerising Fc or GST)
scFv: GVQLQQSGAELVRPGASVKLSCKASGYTFTDYEMHWVKQTPVHGLEWIGAIDPETGGTAYNQKFKGKAILTADKSSSTAYMELRSLTSEDSAVYYCTVYGLAYWGQGTLVTVSAADVVMTQTPLSLPVSLGDQASISCRSSQSLVHSNGNTYLHWYLQKPGQSPKLLIYKVSNRFSGVPDRFSGSGSGTDFTLKISRVEAEDLGVYFCSQNTHVPYTFGGGTKLELK
B3: monoclonal antibody #27 (scFv-Fc form) (Fc fusion, not shown: a dimerising Fc or GST)
scFv: QVQLQQFGAELVRPGASVTLSCKASGYTFTDYEMHWVKQTPVHGLEWIGAIDPETGGTAYNQKFKGKAILTADKSSSTAYMELRSLTSEDSAVYYCTRPYLGYWGQGTTVTVSSADAVVTQTPLSLPVSLGDQASISCRSSQSLVHSNGNTYLHWYLQKPGQSPKLLIYKVSNRFSGVPDRFSGSGSGTDFTLKISRVEAEDLGVYYCFQGSHIPLTFGAGTKLELK
B4: monoclonal antibody #88 (scFv-Fc form) (Fc fusion, not shown: a dimerising Fc or GST)
scFv: QVQLQQFGAELVRPGASVKLSCKASGYTFTDYEMHWVKQTPVHGLEWIGAIDPETGGTAYNQKFKGKATLTADKSSSTAYMELRSLTSEDSAVYYCTPNYWYFDVWGAGTSVTVSSADAVVTQTPLSLPVSLGDQASISCRSSQSLVHSNGNTYLHWYLQKPGQSPKLLIYKVSNRFSGVPDRFSGSGSGTDFTLKISRVEAEDLGVYFCSQSTHVPYTFGGGTKLELK
B5: monoclonal antibody #92 (scFv-Fc form) (Fc fusion, not shown: a dimerising Fc or GST)
scFv: EVQLQQSVADLVRPGASVKLSCTASGFNIENTYMHWVKQRPEQGLEWIGRIDPANGNTKYAPKFQDKATITADTSSNTAYLQLSSLTSEDTAVYYCTSLGAYWGQGTLVTVSAADAVLTQTPLSLPVSLGDQASISCRSSQSIVHSNGNTYLEWYLQKPGQSPKLLIYKVSNRFSGVPDRFSGSGSGTDFTLKISRVEAEDLGVYFCSQSTHVPLTFGAGTKLEIK

Target: T1, transmembrane 4 L six family member 5 …
Assay: cell-based or functional assay

| Protein | inhibition of invasion of TM4SF5-overexpressing liver cancer cells (Tp), transwell assay, 20 µg/mL antibody | inhibition of growth of TM4SF5-overexpressing liver cancer cells (Tp, T16) in the absence of serum, 20 µg/mL antibody | inhibition of infiltration of TM4SF5-overexpressing liver cancer cells (Tp), transwell assay, 20 µg/mL antibody |
| --- | --- | --- | --- |
| B1 | 83% | – | – |
| B2 | 49% | – | – |
| B3 | 56% | – | – |
| B4 | – | ~50% | 73% |
| B5 | – | ~50% | 46% |
